The term IC50 denotes the concentration that inhibits the measured activity by half. In general, Kd refers to the free concentration of one partner at which half of the binding sites on the other are occupied at equilibrium, for simple one-to-one binding. A high value points to a looser complex.

Assay [1] addresses HLA-B*07:02. Description: IEDB peptide-MHC binding, purified MHC/competitive/fluorescence; ≥ and ≤ were set here for values at or beyond the usual limits of such assays. The note with it: source organism: Zaire ebolavirus.
For assay [2], the target named is HLA-A*02:01. The description is as above. The note with it: source organism: Zaire ebolavirus.
Assay [3] deals with HLA-B*15:01. The assay is described as above. The note with it: source organism: Zaire ebolavirus.
The target of a further assay is HLA-A*24:02. The description is as above. The following applies: source organism: Zaire ebolavirus.
Another assay concerns the target HLA-A*02:16. Nature of the assay: IEDB peptide-MHC binding, purified MHC/competitive/fluorescence; filed as Kd, often an IC50 or EC50 that approximates it; ≥ and ≤ were set here for values at or beyond the usual limits of such assays.
The target of another assay is HLA-A*02:12. The description is as above.
The next assay has as its target HLA-A*02:03. The description is as above.
The target of assay [4] is HLA-B*57:01. Described as above.
The target in a further assay is HLA-A*69:01. The assay is described as above.
In assay [5] the target is HLA-A*26:01. The assay is described as above.
The target in another assay is HLA-B*27:03. The assay is described as above.
In assay [6] the target is HLA-B*18:01. The description is as above.
A further assay concerns the target HLA-A*02:11. The assay is described as above.
A further assay deals with HLA-B*39:01. The description is as above.
The target of a further assay is HLA-B*15:17. The assay is described as above. The note with it: source organism: Vibrio vulnificus YJ016.
Assay [7] has as its target HLA-A*02:01. The description is as above.
Assay [8] concerns the target HLA-B*15:01. Described as above.
For assay [9], the target named is HLA-B*46:01. The assay is described as above.
Assay [10] deals with HLA-A*03:01. Described as above.
Another assay has as its target HLA-A*02:19. The description is as above.
For the next assay, the target named is HLA-B*51:01. The description is as above.
In assay [11] the target is HLA-A*68:02. The description is as above.
Assay [12] addresses HLA-A*26:01. Description: IEDB peptide-MHC binding, purified MHC/direct/fluorescence; filed as Kd, often an IC50 or EC50 that approximates it; ≥ and ≤ were set here for values at or beyond the usual limits of such assays. The note with it: source organism: Influenza A virus (A/goose/Hong Kong/8/1976(H1N1)).
For a further assay, the target named is HLA-A*26:02. Described as above.
The target of the next assay is HLA-C*14:02. Described as above. The note with it: source organism: West Nile virus.
In assay [13] the target is HLA-B*08:01. Nature of the assay: IEDB peptide-MHC binding, purified MHC/competitive/fluorescence; ≥ and ≤ were set here for values at or beyond the usual limits of such assays. The following applies: source organism: Zaire ebolavirus.
Another assay deals with HLA-A*11:01. Nature of the assay: IEDB peptide-MHC binding, purified MHC/direct/fluorescence; filed as Kd, often an IC50 or EC50 that approximates it; ≥ and ≤ were set here for values at or beyond the usual limits of such assays. The note with it: source organism: Zaire ebolavirus.
In assay [14] the target is HLA-B*57:01. Described as above. The following applies: source organism: Zaire ebolavirus.
Assay [15] has as its target HLA-B*18:01. Described as above. The note with it: source organism: Zaire ebolavirus.
The next assay concerns the target HLA-A*29:02. Described as above. The note with it: source organism: Zaire ebolavirus.
Another assay concerns the target HLA-A*23:01. Described as above. The note with it: source organism: Zaire ebolavirus.
The target of assay [16] is HLA-B*07:02. The description is as above. The note with it: source organism: Zaire ebolavirus.
For assay [17], the target named is HLA-B*46:01. The assay is described as above. The following applies: source organism: Zaire ebolavirus.
The target of assay [18] is HLA-A*03:01. The assay is described as above. The note with it: source organism: Zaire ebolavirus.
Another assay addresses HLA-A*01:01. Described as above. The following applies: source organism: Zaire ebolavirus.
Another assay deals with HLA-B*27:05. The assay is described as above. The note with it: source organism: Zaire ebolavirus.
Assay [19] deals with HLA-B*08:01. The assay is described as above. The following applies: source organism: Zaire ebolavirus.
The target of the next assay is HLA-B*44:02. The assay is described as above. The following applies: source organism: Zaire ebolavirus.
The target of assay [20] is HLA-A*68:02. The assay is described as above. The note with it: source organism: Zaire ebolavirus.
Where [21] appears, read: source organism: Vibrio vulnificus YJ016.
Where [22] appears, read: source organism: Campylobacter jejuni subsp. jejuni NCTC 11168 = ATCC 700819.
[23] abbreviates: source organism: Zaire ebolavirus.

Sequence ENTNTSKST came in with an IC50 with HLA-B*07:02 [1] not below 200 µM.
As to AAVSHLTTL, the IC50 in the assay with HLA-A*02:01 [2] stood at 1.05 µM; with HLA-B*07:02 [1] it was 21.7 µM; with HLA-B*15:01 [3], 16.5 µM; in the assay with HLA-A*24:02, 2.25 µM.
For RRTRREAIV, the IC50 with HLA-A*02:01 [2] was not below 5060 µM; in the assay with HLA-B*07:02 [1], 37.7 µM; with HLA-A*24:02, 63.3 µM.
For the sequence DFISMYFPW, the Kd with HLA-A*02:16 (setting [21]), with HLA-A*02:12 (setting [21]), in the assay with HLA-A*02:03 (setting [21]), with HLA-B*57:01 [4] (setting [21]), in the assay with HLA-A*69:01 (setting [21]) and with HLA-A*26:01 [5] (setting [21]) was not below 20 µM in each case. Further, the Kd with HLA-B*27:03 (setting [21]) is not below 20 µM; with HLA-B*18:01 [6] (setting [21]), 0.946 µM; in the assay with HLA-A*02:11 (setting [21]) it was not below 20 µM; with HLA-B*39:01 (setting [21]) it was not below 20 µM; with HLA-B*15:17, not below 20 µM; with HLA-A*02:01 [7] (setting [21]) it was not below 20 µM. Further, the Kd with HLA-B*15:01 [8] (setting [21]), in the assay with HLA-B*46:01 [9] (setting [21]), in the assay with HLA-A*03:01 [10] (setting [21]), in the assay with HLA-A*02:19 (setting [21]), with HLA-B*51:01 (setting [21]) and in the assay with HLA-A*68:02 [11] (setting [21]) was not below 20 µM in each case.
As to LSPGMMMGM, the Kd with HLA-A*26:01 [12] was not below 20 µM; with HLA-A*26:02 (source organism: Influenza B virus (B/Beijing/184/93)), 0.319 µM.
For the sequence AELIDSFTW, the Kd with HLA-A*02:16 (setting [22]), with HLA-A*02:12 (setting [22]), in the assay with HLA-A*02:03 (setting [22]), with HLA-B*57:01 [4] (setting [22]), with HLA-A*69:01 (setting [22]) and with HLA-A*26:01 [5] (setting [22]) was not below 20 µM each time. Besides, the Kd in the assay with HLA-B*27:03 (setting [22]) was not below 20 µM; with HLA-B*18:01 [6] (setting [22]), 0.462 µM; with HLA-A*02:11 (setting [22]), not below 20 µM; with HLA-B*39:01 (setting [22]) it was not below 20 µM; in the assay with HLA-A*02:01 [7] (setting [22]) it was not below 20 µM; with HLA-B*15:01 [8] (setting [22]), not below 20 µM. For the same sequence, the Kd with HLA-B*46:01 [9] (setting [22]), with HLA-A*03:01 [10] (setting [22]), with HLA-A*02:19 (setting [22]), with HLA-B*51:01 (setting [22]) and with HLA-A*68:02 [11] (setting [22]) was not below 20 µM throughout.
Consider DTITNVTTM, for which the results for the Kd in the assay with HLA-C*14:02 and in the assay with HLA-A*26:02 (source organism: West Nile virus strain PTRoxo) were 1.65 µM and not above 0.001 µM, respectively.
For RLAKLTEAI, the IC50 with HLA-A*02:01 [2] was 14.9 µM; in the assay with HLA-B*07:02 [1], not below 217 µM; in the assay with HLA-B*15:01 [3] it was 48 µM; with HLA-B*08:01 [13] it was not below 182 µM; with HLA-A*24:02 it was 1.43 µM. Moreover, the Kd with HLA-A*11:01, with HLA-B*57:01 [14], with HLA-B*18:01 [15], with HLA-A*29:02, in the assay with HLA-A*23:01 and with HLA-B*07:02 [16] was not below 20 µM throughout. Moreover, the Kd in the assay with HLA-B*46:01 [17] was not below 20 µM; with HLA-A*03:01 [18], not below 20 µM; in the assay with HLA-A*01:01 it was not below 20 µM; with HLA-B*27:05, not below 20 µM; with HLA-B*08:01 [19], 13.3 µM; with HLA-B*44:02, not below 20 µM. Further, the dissociation constant Kd with HLA-A*68:02 [20], with HLA-A*69:01 (setting [23]), with HLA-A*26:01 [5] (setting [23]), with HLA-B*27:03 (setting [23]) and with HLA-B*39:01 (setting [23]) was not below 20 µM each time.

Values taken from the Immune Epitope Database (IEDB).
